Laboratory results from patent US20260132183A1 (ACADEMISCH ZIEKENHUIS LEIDEN H O D N LUMC, published 2026).

T1: MAGE-A6 peptide on HLA-B*35:01 (human)
T1 peptide: EVDPIGHVY

T2: MAGE-A1 peptide on HLA-A*02:01 (human)
T2 peptide: KVLEYVIKV

T3: MAGE-A1 peptide on HLA-C*07:02 (human)
T3 peptide: VRFFFPSL

T4: MAGE-A9 peptide on HLA-A*01:01 (human)
T4 peptide: YVGKEHMFY

T5: MAGE-A1 peptide on HLA-A*03:01 (human)
T5 peptide: SLFRAVITK

T6: MAGE-A1 peptide on HLA-B*07:02 (human)
T6 peptide: RVRFFFPSL

T7: MAGE-A3 peptide on HLA-B*35:01 (human)
T7 peptide: EVDPIGHLY


Each binder was assayed against T8, HLA-A*01:01 with beta-2 microglobulin (human) (assay: pHLA monomer refolding).
T8 construct: also called HLA-A1

Row | binding result | Binder
1 | binds | YVGKEHMFY (synthetic peptide) [YVGKEHMFY (MAGE-A9 peptide)]
2 | binds | LTQDLVQEKYLEY (synthetic peptide) [LTQDLVQEKYLEY (MAGE-A1 peptide)]

The binders below were run against T9, HLA-A*02:01 with beta-2 microglobulin (human) (assay: pHLA monomer refolding).
T9 construct: also called HLA-A2

Row | binding result | Binder
3 | binds | ALREEEEGV (synthetic peptide) [ALREEEEGV (MAGE-A1 peptide)]
4 | binds | FVYGEPREL (synthetic peptide) [FVYGEPREL (MAGE-C2 peptide)]
5 | binds | TLDEKVAEL (synthetic peptide) [TLDEKVAEL (MAGE-C2 peptide)]
6 | binds | ALKDVEERV (synthetic peptide) [ALKDVEERV (MAGE-C2 peptide)]

Second part, the binder before the results:

Row | Binder | binding result
7 | KIWEELSVLEV (synthetic peptide) [KIWEELSVLEV (MAGE-A3/A6 peptide)] | binds
8 | GVYDGREHTV (synthetic peptide) [GVYDGREHTV (MAGE-A4 peptide)] | binds
9 | VIWEVLNAV (synthetic peptide) [VIWEVLNAV (MAGE-C2 peptide)] | binds
10 | ALIEVGPDHFC (synthetic peptide) [ALIEVGPDHFC (MAGE-C2 peptide)] | binds
11 | KVLEYVIKV (synthetic peptide) [KVLEYVIKV (MAGE-A1 peptide)] | binds
12 | KVLEFLAKL (synthetic peptide) [KVLEFLAKL (MAGE-C2 peptide)] | binds
13 | VLGEEQEGV (synthetic peptide) [VLGEEQEGV (MAGE-A9 peptide)] | binds
14 | GVYAGREHFV (synthetic peptide) [GVYAGREHFV (MAGE-C2 peptide)] | binds
15 | KASEKIFYV (synthetic peptide) [KASEKIFYV (SSX2 peptide)] | binds

These binders were tested against T10, HLA-A*03:01 with beta-2 microglobulin (human) (assay: pHLA monomer refolding).
T10 construct: also called HLA-A3

Row | binding result | Binder
16 | binds | RVRIAYPSLR (synthetic peptide) [RVRIAYPSLR (MAGE-A4 peptide)]
17 | binds | SVMGVYVGK (synthetic peptide) [SVMGVYVGK (MAGE-A9 peptide)]
18 | binds | RCFPVIFGK (synthetic peptide) [RCFPVIFGK (MAGE-A4 peptide)]

Second part, the binder before the results:

Row | Binder | binding result
19 | RIFPKIMPK (synthetic peptide) [RIFPKIMPK (SSX4 peptide)] | binds
20 | RVRFFFPSLR (synthetic peptide) [RVRFFFPSLR (MAGE-A1 peptide)] | binds
21 | IVLGVILTK (synthetic peptide) [IVLGVILTK (MAGE-A9 peptide)] | binds
22 | ATLPPFMCNK (synthetic peptide) [ATLPPFMCNK (SSX2 peptide)] | binds
23 | SMLGDGHSMPK (synthetic peptide) [SMLGDGHSMPK (MAGE-A9 peptide)] | binds

What follows are binders tested against T11, HLA-B*07:02 with beta-2 microglobulin (human) (assay: pHLA monomer refolding).
T11 construct: also called HLA-B7

Row | binding result | Binder
24 | binds | RVRFFFPSL (synthetic peptide) [RVRFFFPSL (MAGE-A1 peptide)]
25 | binds | RVRIAYPSL (synthetic peptide) [RVRIAYPSL (MAGE-A4 peptide)]
26 | binds | FPSLREAAL (synthetic peptide) [FPSLREAAL (MAGE-A1 peptide)]
27 | binds | YPSLREAAL (synthetic peptide) [YPSLREAAL (MAGE-A4 peptide)]
28 | binds | RPADLTRVIM (synthetic peptide) [RPADLTRVIM (MAGE-A11 peptide)]

The binders below were run against T12, HLA-C*07:02 with beta-2 microglobulin (human) (assay: pHLA monomer refolding).
T12 construct: also called HLA-C7; C702

Row | binding result | Binder
29 | binds | VRFFFPSL (synthetic peptide) [VRFFFPSL (MAGE-A1 peptide)]

Biological target: T1, MAGE-A6 peptide on HLA-B*35:01
Test: cytokine release

Row | binding result | Binder
30 | recognises | TCR CT23.2H9 (TCR, V domains shown) Valpha: KDQVFQPSTVASSEGAVVEIFCNHSVSNAYNFFWYLHFPGCAPRLLVKGSKPSQQGRYNMTYERFSSSLLILQVREADAAVYYCAVPNNYGQNFVFGPGTRLSVLP Vbeta: NAGVTQTPKFRILKIGQSMTLQCTQDMNHNYMYWYRQDPGMGLKLIYYSVGAGITDKGEVPNGYNVSRSTTEDFPLRLELAAPSQTSVYFCASSYSGQGLYEQYFGPGTRLTVT

Biological target: T2, MAGE-A1 peptide on HLA-A*02:01
Test: multimer staining

Row | binding result | Binder
31 | recognises | TCR CT27.4F7 (TCR, V domains shown) Valpha: GEDVEQSLFLSVREGDSSVINCTYTDSSSTYLYWYKQEPGAGLQLLTYIFSNMDMKQDQRLTVLLNKKDKHLSLRIADTQTGDSAIYFCAESIDARLMFGDGTQLVVKP Vbeta: DSGVTQTPKHLITATGQRVTLRCSPRSGDLSVYWYQQSLDQGLQFLIQYYNGEERAKGNILERFSAQQFPDLHSELNLSSLELGDSALYFCASSPGGDTQYFGPGTRLTVL

Biological target: T3, MAGE-A1 peptide on HLA-C*07:02
Test: multimer staining

Row | binding result | Binder
32 | recognises | TCR CT31.10C1 (TCR, V domains shown) Valpha: DQQVKQNSPSLSVQEGRISILNCDYTNSMFDYFLWYKKYPAEGPTFLISISSIKDKNEDGRFTVFLNKSAKHLSLHIVPSQPGDSAVYFCAASAQNNDMRFGAGTRLTVKP Vbeta: DAGVIQSPRHEVTEMGQEVTLRCKPISGHDYLFWYRQTMMRGLELLIYFNNNVPIDDSGMPEDRFSAKMPNASFSTLKIQPSEPRDSAVYFCASGTGWDTEAFFGQGTRLTVV

Biological target: T4, MAGE-A9 peptide on HLA-A*01:01
Test: multimer staining

Row | binding result | Binder
33 | recognises | TCR CT43.2D8 (TCR, V domains shown) Valpha: EDKVVQSPLSLVVHEGDTVTLNCSYEVTNFRSLLWYKQEKKAPTFLFMLTSSGIEKKSGRLSSILDKKELSSILNITATQTGDSAIYLCAVEGWDDKIIFGKGTRLHILP Vbeta: DAGITQSPRHKVTETGTPVTLRCHQTENHRYMYWYRQDPGHGLRLIHYSYGVKDTDKGEVSDGYSVSRSKTEDFLLTLESATSSQTSVYFCAISEGRNEQYFGPGTRLTVT

Biological target: T5, MAGE-A1 peptide on HLA-A*03:01
Test: multimer staining

Row | binding result | Binder
34 | recognises | TCR CT23.3H4 (TCR, V domains shown) Valpha: RKEVEQDPGPFNVPEGATVAFNCTYSNSASQSFFWYRQDCRKEPKLLMSVYSSGNEDGRFTAQLNRASQYISLLIRDSKLSDSATYLCVVNFNYGQNFVFGPGTRLSVLP Vbeta: DTGVSQDPRHKITKRGQNVTFRCDPISEHNRLYWYRQTLGQGPEFLTYFQNEAQLEKSRLLSDRFSAERPKGSFSTLEIQRTEQGDSAMYLCASSPLGVNTEAFFGQGTRLTVV

Biological target: T6, MAGE-A1 peptide on HLA-B*07:02
Test: multimer staining

Row | binding result | Binder
35 | recognises | TCR CT12.3G2 (TCR, V domains shown) Valpha: AQKVTQAQTEISVVEKEDVTLDCVYETRDTTYYLFWYKQPPSGELVFLIRRNSFDEQNEISGRYSWNFQKSTSSFNFTITASQVVDSAVYFCALSEAYSGAGSYQLTFGKGTKLSVIP Vbeta: EPEVTQTPSHQVTQMGQEVILRCVPISNHLYFYWYRQILGQKVEFLVSFYNNEISEKSEIFDDQFSVERPDGSNFTLKIRSTKLEDSAMYFCASSEALQPQHFGDGTRLSIL

Biological target: T7, MAGE-A3 peptide on HLA-B*35:01
Test: multimer staining

Row | binding result | Binder
36 | recognises | TCR CT23.2H9 (TCR, V domains shown) Valpha: KDQVFQPSTVASSEGAVVEIFCNHSVSNAYNFFWYLHFPGCAPRLLVKGSKPSQQGRYNMTYERFSSSLLILQVREADAAVYYCAVPNNYGQNFVFGPGTRLSVLP Vbeta: NAGVTQTPKFRILKIGQSMTLQCTQDMNHNYMYWYRQDPGMGLKLIYYSVGAGITDKGEVPNGYNVSRSTTEDFPLRLELAAPSQTSVYFCASSYSGQGLYEQYFGPGTRLTVT
